In patent publication US20240108738A1 (Bicycle, published 2024):
Numbered stars: 1 amine (or outer) side, 2 acyl side, 3 side chain; on linkers, the order of the positions; unused ones are H or OH. Bridge positions count the residues as written; N and C are the ends. Square brackets hold non-standard residues; d marks the D form. Ends that are not written are not given here. * marks the point of attachment. 4MeOPhe = 4-methoxy-phenylalanine, COc1ccc(C[C@H](N[*:1])C(=O)[*:2])cc1; TATA = O=C(CC[*:1])N1CN(C(=O)CC[*:2])CN(C(=O)CC[*:3])C1; Phe(4-CONH2) = NC(=O)c1ccc(C[C@H](N)C(=O)O)cc1; Phe(4-F) = N[C@@H](Cc1ccc(F)cc1)C(=O)O; 1Nal = N[C@@H](Cc1cccc2ccccc12)C(=O)O; 2Nal = N[C@@H](Cc1ccc2ccccc2c1)C(=O)O; Ala(cPent) = N[C@@H](CC1CCCC1)C(=O)O; tBuAla = CC(C)(C)C[C@H](N)C(=O)O; Cba = N[C@@H](CC1CCC1)C(=O)O; Pent4ynoyl = C#CCCC(=O)*; Aib = CC(C)(N)C(=O)O

B1: BCY16834 (peptide)
peptide: ACK(Pent4ynoyl)LPDYLCGDEYCA-NH2
modifications: linker 2-9-14 via TATA; N-terminus assumed
SMILES: C#CCCC(=O)NCCCC[C@@H]1NC(=O)[C@@H](NC(=O)[C@H](C)N)CSCCC(=O)N2CN3CN(C2)C(=O)CCSC[C@@H](C(=O)N[C@@H](C)C(N)=O)NC(=O)[C@H](Cc2ccc(O)cc2)NC(=O)[C@H](CCC(=O)O)NC(=O)[C@H](CC(=O)O)NC(=O)CNC(=O)[C@H](CSCCC3=O)NC(=O)[C@H](CC(C)C)NC(=O)[C@H](Cc2ccc(O)cc2)NC(=O)[C@H](CC(=O)O)NC(=O)[C@@H]2CCCN2C(=O)[C@H](CC(C)C)NC1=O
notes: scaffold TATA
B2: BCY15109 (peptide)
peptide: ACNLQLHNCIWGVCA-NH2
modifications: linker 2-9-14 via TATA; also: scaffold TATA, TATB or TBMT
notes: scaffold TATA
B3: BCY15568 (peptide)
peptide: ACNLQLHNCQWGICA-NH2
modifications: linker 2-9-14 via TATA; also: scaffold TATA, TATB or TBMT
notes: scaffold TATA
B4: BCY15108 (peptide)
peptide: ACDLTTHNCLWGVCA-NH2
modifications: linker 2-9-14 via TATA; also: scaffold TATA, TATB or TBMT
notes: scaffold TATA
B5: BCY15648 (peptide)
peptide: ACYLPDW[tBuAla]CGDEYCA-NH2
modifications: linker 2-9-14 via TATA; N-terminus assumed
SMILES: CC(C)C[C@@H]1NC(=O)[C@H](Cc2ccc(O)cc2)NC(=O)[C@@H](NC(=O)[C@H](C)N)CSCCC(=O)N2CN3CN(C2)C(=O)CCSC[C@@H](C(=O)N[C@@H](C)C(N)=O)NC(=O)[C@H](Cc2ccc(O)cc2)NC(=O)[C@H](CCC(=O)O)NC(=O)[C@H](CC(=O)O)NC(=O)CNC(=O)[C@H](CSCCC3=O)NC(=O)[C@H](CC(C)(C)C)NC(=O)[C@H](Cc2c[nH]c3ccccc23)NC(=O)[C@H](CC(=O)O)NC(=O)[C@@H]2CCCN2C1=O
notes: scaffold TATA
B6: BCY15649 (peptide)
peptide: ACYLPDW[Cba]CGDEYCA-NH2
modifications: linker 2-9-14 via TATA
notes: scaffold TATA
B7: BCY15635 (peptide)
peptide: Ac-ACYLPDYLCGDEYCA-NH2
modifications: linker 2-9-14 via TATA
notes: scaffold TATA
B8: BCY15100 (peptide)
peptide: ACYLPDYLCGDEYCA-NH2
modifications: linker 2-9-14 via TATA; also: scaffold TATA, TATB or TBMT
notes: scaffold TATA
B9: BCY15659 (peptide)
peptide: ACYLPDYLCADEYCA-NH2
modifications: linker 2-9-14 via TATA; also: cyclised with TATA, TATB or TBMT
notes: scaffold TATA
B10: BCY15653 (peptide)
peptide: ACALPDYLCGDEYCA-NH2
modifications: linker 2-9-14 via TATA; also: cyclised with TATA, TATB or TBMT
notes: scaffold TATA
B11: BCY15655 (peptide)
peptide: ACYLADYLCGDEYCA-NH2
modifications: linker 2-9-14 via TATA; also: cyclised with TATA, TATB or TBMT
notes: scaffold TATA
B12: BCY15662 (peptide)
peptide: ACYLPDYLCGDEACA-NH2
modifications: linker 2-9-14 via TATA; also: cyclised with TATA, TATB or TBMT
notes: scaffold TATA
B13: BCY15661 (peptide)
peptide: ACYLPDYLCGDAYCA-NH2
modifications: linker 2-9-14 via TATA; also: cyclised with TATA, TATB or TBMT
notes: scaffold TATA
B14: BCY15633 (peptide)
peptide: CYLPDYLCGDEYC-NH2
modifications: linker 1-8-13 via TATA; also: scaffold TATA, TATB or TBMT
notes: scaffold TATA
B15: BCY15634 (peptide)
peptide: Ac-CYLPDYLCGDEYC-NH2
modifications: linker 1-8-13 via TATA; not fully specified
notes: scaffold TATA
B16: BCY15644 (peptide)
peptide: ACYLPD[2Nal]LCGDEYCA-NH2
modifications: linker 2-9-14 via TATA; N-terminus assumed
SMILES: CC(C)C[C@@H]1NC(=O)[C@H](Cc2ccc3ccccc3c2)NC(=O)[C@H](CC(=O)O)NC(=O)[C@@H]2CCCN2C(=O)[C@H](CC(C)C)NC(=O)[C@H](Cc2ccc(O)cc2)NC(=O)[C@@H](NC(=O)[C@H](C)N)CSCCC(=O)N2CN3CN(C2)C(=O)CCSC[C@@H](C(=O)N[C@@H](C)C(N)=O)NC(=O)[C@H](Cc2ccc(O)cc2)NC(=O)[C@H](CCC(=O)O)NC(=O)[C@H](CC(=O)O)NC(=O)CNC(=O)[C@H](CSCCC3=O)NC1=O
notes: scaffold TATA
B17: BCY16135 (peptide)
peptide: ACYLPD[Phe(4-F)]LCGDEYCA-NH2
modifications: linker 2-9-14 via TATA; N-terminus assumed
SMILES: CC(C)C[C@@H]1NC(=O)[C@H](Cc2ccc(F)cc2)NC(=O)[C@H](CC(=O)O)NC(=O)[C@@H]2CCCN2C(=O)[C@H](CC(C)C)NC(=O)[C@H](Cc2ccc(O)cc2)NC(=O)[C@@H](NC(=O)[C@H](C)N)CSCCC(=O)N2CN3CN(C2)C(=O)CCSC[C@@H](C(=O)N[C@@H](C)C(N)=O)NC(=O)[C@H](Cc2ccc(O)cc2)NC(=O)[C@H](CCC(=O)O)NC(=O)[C@H](CC(=O)O)NC(=O)CNC(=O)[C@H](CSCCC3=O)NC1=O
notes: scaffold TATA
B18: BCY16130 (peptide)
peptide: ACY[Ala(cPent)]PDYLCGDEYCA-NH2
modifications: linker 2-9-14 via TATA
notes: scaffold TATA
B19: BCY16136 (peptide)
peptide: ACYLPD[4MeOPhe]LCGDEYCA-NH2
modifications: linker 2-9-14 via TATA; N-terminus assumed
SMILES: COc1ccc(C[C@@H]2NC(=O)[C@H](CC(=O)O)NC(=O)[C@@H]3CCCN3C(=O)[C@H](CC(C)C)NC(=O)[C@H](Cc3ccc(O)cc3)NC(=O)[C@@H](NC(=O)[C@H](C)N)CSCCC(=O)N3CN4CN(C3)C(=O)CCSC[C@@H](C(=O)N[C@@H](C)C(N)=O)NC(=O)[C@H](Cc3ccc(O)cc3)NC(=O)[C@H](CCC(=O)O)NC(=O)[C@H](CC(=O)O)NC(=O)CNC(=O)[C@H](CSCCC4=O)NC(=O)[C@H](CC(C)C)NC2=O)cc1
notes: scaffold TATA
B20: BCY16134 (peptide)
peptide: [dA]CYLPDYLCGDEYC-NH2
modifications: linker 2-9-14 via TATA; N-terminus assumed
SMILES: CC(C)C[C@@H]1NC(=O)[C@H](Cc2ccc(O)cc2)NC(=O)[C@H](CC(=O)O)NC(=O)[C@@H]2CCCN2C(=O)[C@H](CC(C)C)NC(=O)[C@H](Cc2ccc(O)cc2)NC(=O)[C@@H](NC(=O)[C@@H](C)N)CSCCC(=O)N2CN3CN(C2)C(=O)CCSC[C@H](NC1=O)C(=O)NCC(=O)N[C@@H](CC(=O)O)C(=O)N[C@@H](CCC(=O)O)C(=O)N[C@@H](Cc1ccc(O)cc1)C(=O)N[C@H](C(N)=O)CSCCC3=O
notes: scaffold TATA
B21: BCY16140 (peptide)
peptide: ACYLPD[Phe(4-CONH2)]LCGDEYCA-NH2
modifications: linker 2-9-14 via TATA; N-terminus assumed
SMILES: CC(C)C[C@@H]1NC(=O)[C@H](Cc2ccc(C(N)=O)cc2)NC(=O)[C@H](CC(=O)O)NC(=O)[C@@H]2CCCN2C(=O)[C@H](CC(C)C)NC(=O)[C@H](Cc2ccc(O)cc2)NC(=O)[C@@H](NC(=O)[C@H](C)N)CSCCC(=O)N2CN3CN(C2)C(=O)CCSC[C@@H](C(=O)N[C@@H](C)C(N)=O)NC(=O)[C@H](Cc2ccc(O)cc2)NC(=O)[C@H](CCC(=O)O)NC(=O)[C@H](CC(=O)O)NC(=O)CNC(=O)[C@H](CSCCC3=O)NC1=O
notes: scaffold TATA
B22: BCY15642 (peptide)
peptide: ACYL[Aib]DYLCGDEYCA-NH2
modifications: linker 2-9-14 via TATA
notes: scaffold TATA
B23: BCY15643 (peptide)
peptide: ACYLPD[1Nal]LCGDEYCA-NH2
modifications: linker 2-9-14 via TATA; N-terminus assumed
SMILES: CC(C)C[C@@H]1NC(=O)[C@H](Cc2cccc3ccccc23)NC(=O)[C@H](CC(=O)O)NC(=O)[C@@H]2CCCN2C(=O)[C@H](CC(C)C)NC(=O)[C@H](Cc2ccc(O)cc2)NC(=O)[C@@H](NC(=O)[C@H](C)N)CSCCC(=O)N2CN3CN(C2)C(=O)CCSC[C@@H](C(=O)N[C@@H](C)C(N)=O)NC(=O)[C@H](Cc2ccc(O)cc2)NC(=O)[C@H](CCC(=O)O)NC(=O)[C@H](CC(=O)O)NC(=O)CNC(=O)[C@H](CSCCC3=O)NC1=O
notes: scaffold TATA

molecular target: T1, Human NKp46 Fc tag (Acro Biosystems, NC1-H5257) (human, UniProt O76036 22-255); experiment: SPR Method 1 and/or 2
T1 construct: bought; also called Fc-tagged human NKp46
Summary of the method: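 Fc-tagged human NKp46 captured on anti-human IgG surface (500–1000 RU); compounds run in PBS-P+ with 2% DMSO at 25 °C, 50 μL/min, 60 s association, 400 s dissociation. Double-referenced, DMSO-corrected; KD from steady-state 1:1 fit, kinetic constants from kinetic 1:1 fit where appropriate.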

T1 sequence (O76036 22-255 limits assumed): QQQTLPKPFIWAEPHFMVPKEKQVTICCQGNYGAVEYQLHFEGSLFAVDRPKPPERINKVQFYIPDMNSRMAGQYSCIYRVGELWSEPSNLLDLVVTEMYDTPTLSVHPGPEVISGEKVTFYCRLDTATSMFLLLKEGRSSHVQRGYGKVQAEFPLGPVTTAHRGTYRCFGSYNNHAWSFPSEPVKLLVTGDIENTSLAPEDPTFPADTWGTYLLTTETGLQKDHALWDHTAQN

Kd | Binder
83 nM | B1
274 nM | B2
69 nM | B3
642 nM | B4

molecular target: T2, Human NKp46 His tag (Acro Biosystems, NC1-H52H4) (human, UniProt O76036 22-255); experiment: FP competition vs BCY15035
T2 construct: bought; also called human NKp46-his tagged protein
Description: The untagged competitor peptides were diluted in assay buffer 25 mM HEPES, 100 mM NaCl, 0.01% P20, pH 7.4. to a top concentration of 5000 nM and diluted 2-fold in 11 steps. The human NKp46-his tagged protein (AcroBiosystems) was diluted to 40 nM final concentration in the assay. […] The total volume of 25 μL was prepared in black walled and flat-bottomed low binding low volume 384 well plates. Measurements were performed using Envision (PerkinElmer) equipped with the excitation filter FITC FP 480, emission filter FITC FP P-pol 535 and 2nd emission filter FITC FP S-pol 535 and set to 30 flashes. The gain was set in a well containing tracer alone without target protein.

T2 sequence (O76036 22-255 limits assumed): as above

Ki | Binder
1620 nM | B5
391 nM | B6
61 nM | B7
49 nM | B8
226 nM | B9
411 nM | B10
324 nM | B11
672 nM | B12
1780 nM | B13
86 nM | B14
98 nM | B15
159 nM | B16
639 nM | B17
321 nM | B18
269 nM | B19
77 nM | B20
122 nM | B21
910 nM | B22
755 nM | B23
